The text below walks through data of patent publication US12037395 (IMMVIRA, dated 2024).

The chains are these.
B1: mouse anti-PD-1 monoclonal antibody C1E1 (antibody, mouse IgG1, kappa)
heavy: EVMLVESGGGLVKPGGSLKLSCAASGFTFSSYLMSWVRQTPEKRLEWVATISGGGGDTYFPDSVKGRFTISRDNVKNNLYLQMSSLRSEDTALYYCVRFGGAGYYWYFDVWGAGTTVTVSSAKTTPPSVYPLAPGSAAQTNSMVTLGCLVKGYFPEPVTVTWNSGSLSSGVHTFPAVLQSDLYTLSSSVTVPSSTWPSETVTCNVAHPASSTKVDKKIVPRDCGCKPCICTVPEVSSVFIFPPKPKDVLTITLTPKVTCVVVDISKDDPEVQFSWFVDDVEVHTAQTQPREEQFNSTFRSVSELPIMHQDWLNGKEFKCRVNSAAFPAPIEKTISKTKGRPKAPQVYTIPPPKEQMAKDKVSLTCMITDFFPEDITVEWQWNGQPAENYKNTQPIMDTDGSYFVYSKLNVQKSNWEAGNTFTCSVLHEGLHNHHTEKSLSHSPGK
light: not shown
notes: Purified from hybridoma; also called clone C1E1
B2: mouse anti-PD-1 monoclonal antibody D1F2 (antibody, mouse IgG1, kappa, V domains shown)
VH: EVMLVESGGGLVKPGGSLKLSCAASGFTFSSYTMSWVRQTPEKRLEWVATISGGGSNIYYPDSVEGRFTVSRDNARNTLYLHMSSLRSEDTALYYCVLNYAYAMDYWGQGTSVTVSS
VL: DIQMTQTTSSLSASLGDRVTISCRASQDISNFLNWYQQKPDGTVKLLIYYTSRLQSGVPSRFSGTGSGTDYSLTISNLEQEDLATYFCQQGSSLPWTFGGGTKLEIKR
notes: Purified from hybridoma; Constant regions tied only generically to 'mouse antibodies'
B3: mouse anti-PD-1 monoclonal antibody D1A1 (antibody, mouse IgG1, kappa, V domains shown)
VH: EVMLVESGGGLVKPGGSLKLSCAASGFTFSNYAMSWVRQTPEKRLEWVATISGGGGNIYYPDSVKGRFTISRDNARNTLYLQMSSLRSEDTALYYCASPYANYVWYLDVWGAGTTVTVSS
VL: B2 VL with F32Y, Q55H, T65S, Y71F, Q80E, L83I, G91S, S92N, S93A
notes: as for B2
B4: mouse anti-PD-1 monoclonal antibody C1A1 (antibody, mouse IgG1, kappa, V domains shown)
VH: QVTLKESGPGILKPSQTLSLTCSFSGFSLSTSGMGVGWIRQPSGKGLEWLAHIWWDDDKFYNPSLKSQLTISKDTSRNQVFLKITSVDTADTATYYCARTGGFITTGYWYFDVWGAGTTVTVSS
VL: B2 VL with F32Y, N34I, P40T, V44L, Q55H, T65S, L83I, G91H, S92K, S93T
notes: as for B2
B5: mouse anti-PD-1 monoclonal antibody C1E2 (antibody, mouse IgG1, kappa, V domains shown)
VH: QVQLQQSGAELVRPGTSVKISCKASGYTFTNYWLGWVKQRPGHGLEWIGDIYPGGGYTNYNENFKGKATLTADTSSSTAYMQLSSLTSEDSAVFFCARGYGTNYWYFDVWGAGTTVTVSS
VL: SIVMTQTPKFLLVSAGDRVTITCKASQSVSNDVAWYQQKPGQSPKLLIYYAFHRYTGVPDRFTGSGYGTDFTFTISTVQAEDLAVYFCQQDYSSPYTFGGGTKLEIKR
notes: as for B2
B6: mouse anti-PD-1 monoclonal antibody C1C5 (antibody, mouse IgG1, kappa, V domains shown)
VH: QIQLVQSGPELKKPGETVKISCKASGYTFTNYGINWVKQAPGKGLKWMGWINTYSGEPTYSDDFKGRFAFSLETSASTAYLQINNLKNEDTSTYFCVRQGDFDYEDAMDYWGQGTSVTVSS
VL: DVLMTQSPLSLPVSLGDQASISCRSSQSIVHSNGHIYLEWYLQKPGQSPKLLIYKVSKRFSGVPDRFSGSGSGTDFTLKISRVEAEDLGVYYCFQGSHGTFGGGTKLEIKR
notes: as for B2
B7: mouse anti-PD-1 monoclonal antibody C1F4 (antibody, mouse IgG1, kappa, V domains shown)
VH: QVQLQQSGAELVRPGVSVKISCKGSGYKFTDYAMHWVRQSHAKSLEWIGIISTYSGDVSFNQNFKGKATMTVDKSSSTAYMELARLTSEDSAIYYCSRLGITAGFAYWGQGTLVTVSA
VL: DIVMTQSQKFMSTSVGDRVTITCKASQNVRTAVAWYQQKPGQSPKALIYLASNRHTGVPDRFTGSGSGTDFTLTISNVQSKDLADYFCLQHWNYPYTFGGGTKLEIKR
notes: as for B2
B8: mouse anti-PD-1 monoclonal antibody D1F1 (antibody, mouse IgG1, kappa, V domains shown)
VH: EVMLVESGGGLVKPGGSLKLSCAASGFTFSSNTMSWVRQTPEKRLEWVAAISGGGVNTYYPDSVKGRFTISRDNARNTLYLQMSSLRSEDTALYYCARHGNYNYYGMDYWGQGTSVTVSS
VL: not shown
notes: as for B2
B9: mouse anti-PD-1 monoclonal antibody D2C2 (antibody, mouse IgG1, kappa, V domains shown)
VH: B8 VH with N57D
VL: not shown
notes: as for B2
B10: mouse anti-PD-1 monoclonal antibody C1F5 (antibody, mouse IgG1, kappa, V domains shown)
VH: EVQLVESGGGLVKPGGSLKLSCAASGFAFSSYDMSWVRQTPEKRLEWVAYITGGGSSSFYPDTVKGRFTISRDNSKNTLYLQMTSLRSEDTAMYYCASPYLSYFDYWGQGTTLTVSS
VL: DIVLTQSPATLSVTPGDSVSLSCRASQSISNNLHWYQQKSHESPRLLIKYGSQSMSGIPSRFSGSGSGTDFTLVINSVETEDFGMYFCQQSNSWPLTFGAGTKLELKR
notes: as for B2

Residue numbers refer to the chain shown, from its start.

The first experiment has as its target human PD-1 on PD-1 Effector Cell Line (Genscript, GS-J2/PD-1) (human, UniProt Q15116 25-288). Description: cell-based or functional assay.
Take B1: the “Reporter Activation (EC50, nM) human PD-1 cell (NFAT-luc)/human PD-L1 cell” value (“Reporter Activation” for short) amounted to 9.11 nM.
With B2, the “Reporter Activation” value came out at 7.35 nM.
Take B3: the “Reporter Activation” value was 9.13 nM.
B4: the “Reporter Activation” value worked out at 12.1 nM.
Take B5: the “Reporter Activation” value is 11.1 nM.
For the molecule B6, the “Reporter Activation” value amounted to 23.4 nM.
As to B7, the “Reporter Activation” value was 13.2 nM.
On the same count and under the same terms, for B8 the value was 10.8 nM; for B9, 14.7 nM.
Same read-out and setting: for B10 the value was 7.58 nM.

The next experiment has as its target T1, recombinant human PD-1-his (Sino biological, #10377-H08H) (human, UniProt Q15116 25-167).
T1 construct: Bought protein; also called Human PD-1-his protein; not shown: his tag
Description: SPR (Biacore T200), antibody captured, antigen flowed. The source says:
(§1) Briefly, goat […] (GE healthcare, Cat #BR100839, Human Antibody Capture Kit) was covalently linked to a CM5 chip (carboxy methyl dextran coated chip) via primary amines, using a standard amine coupling kit (GE healthcare, Pittsburgh, PA, USA) provided by Biacore. Unreacted moieties on the biosensor surface were blocked with ethanolamine. […] Then, recombinant human PD-1-his (Sino biological, #10377-H08H) or cynomolgus monkey PD-1-his protein (Acro biosystems, #PD-1-C5223) in HBS EP buffer (provided by Biacore) was flowed onto the chip at a flow rate of 30 μL/min. The antigen-antibody association kinetics was followed for 2 minutes and the dissociation kinetics was followed for 10 minutes. The association and dissociation curves were fit to a 1:1 *Langmuir* binding model using BIA evaluation software.
(In general: Surface plasmon resonance follows binding to a sensor surface in real time, without labels.)
B1: the Kd (commonly the constant that tells how readily two partners part at equilibrium) came to 0.342 nM; the koff (commonly a measure of how fast the partners let go of each other) was 5.88e-05 s⁻¹; the kon (in general, the second-order rate constant of association) is 172000 M⁻¹ s⁻¹.
As to B2, the Kd was 1.05 nM, the koff turned out to be 0.000203 s⁻¹ and the on-rate (kon) is 194000 M⁻¹ s⁻¹.
Turning to B3, the Kd came to 2.06 nM, the dissociation rate constant (koff) stood at 0.000386 s⁻¹ and the kon turned out to be 188000 M⁻¹ s⁻¹.
In the same order, the values of B4 are 1.13 nM, 0.000189 s⁻¹ and 168000 M⁻¹ s⁻¹.
Take B5: the Kd turned out to be 2.88 nM, the off-rate (koff) amounted to 0.000442 s⁻¹ and the kon came out at 153000 M⁻¹ s⁻¹.
B6: the Kd was determined as 0.88 nM, the off-rate (koff) amounted to 0.000203 s⁻¹ and the kon came to 231000 M⁻¹ s⁻¹.
The corresponding values for B7 are 2.3 nM, 0.000359 s⁻¹ and 156000 M⁻¹ s⁻¹.
For the molecule B8, the equilibrium dissociation constant (Kd) came to 2.83 nM, the koff was determined as 0.000577 s⁻¹ and the kon is 204000 M⁻¹ s⁻¹.
On to B9, for which the Kd amounted to 1.77 nM, the koff is 0.000307 s⁻¹ and the kon is 173000 M⁻¹ s⁻¹.
For the molecule B10, the Kd turned out to be 0.372 nM, the koff came out at 0.000131 s⁻¹ and the kon worked out at 353000 M⁻¹ s⁻¹.

In another experiment the target is T2, cynomolgus monkey PD-1-his protein (Acro biosystems, #PD-1-C5223) (cynomolgus monkey, UniProt B0LAJ3 25-170).
T2 construct: Bought protein; also called Cynomolgus PD-1; Cynomolgus PD1
Described as above.
From the text: as §1
B1 gave a Kd of 3.9 nM and a kon of 203000 M⁻¹ s⁻¹.
As to B2, the Kd amounted to 31.7 nM, the koff is 0.00632 s⁻¹ and the kon is 200000 M⁻¹ s⁻¹.
The corresponding values for B3 are 11.3 nM, 0.00236 s⁻¹ and 210000 M⁻¹ s⁻¹.
Molecule B4 had a Kd of 9.5 nM, a koff of 0.00331 s⁻¹ and an association rate constant (kon) of 348000 M⁻¹ s⁻¹.
B5 registered a Kd of 12.5 nM, a koff of 0.00298 s⁻¹ and a kon of 238000 M⁻¹ s⁻¹.
In the same order, the values of B6 are 14.6 nM, 0.0047 s⁻¹ and 322000 M⁻¹ s⁻¹.
In turn, B7 had a Kd of 17.3 nM, a koff of 0.00521 s⁻¹ and a kon of 301000 M⁻¹ s⁻¹.
Turning to B8, the dissociation constant Kd was found to be 112 nM, the koff was found to be 0.00292 s⁻¹ and the kon amounted to 26000 M⁻¹ s⁻¹.
Turning to B9, the Kd is 116 nM, the koff turned out to be 0.00238 s⁻¹ and the kon is 20600 M⁻¹ s⁻¹.
As to B10, binding was put at a Kd of 18.1 nM, the koff amounted to 0.00249 s⁻¹ and the kon amounted to 138000 M⁻¹ s⁻¹.

A further experiment concerns the target T3, biotin-labeled human PD-1 Fc protein (human, biotin-labeled (sites not given)).
T3 construct: also called PD-1-Fc-biotin
In words: competition ELISA: blocks biotin PD-1-Fc binding to coated PD-L1-Fc. As for the experimental part: The next day, plates were washed with wash buffer (PBS+0.05% Tween-20, PBST), and blocked with 5% non-fatty milk in PBST for 2 hours at 37° C. Plates were then washed again using wash buffer.
After incubation at 37° C. for 40 minutes, plates were washed for 4 times using wash buffer. […] Plates were washed again using wash buffer. Finally, TMB was added and the reaction was stopped using 1M H_2SO_4, and the absorbance was read at 450 nm. Data were analyzed using Graphpad Prism software and $IC50$ values were reported.
In the case of B1, the IC50 (usually the point on the concentration scale where inhibition reaches its midpoint) worked out at 0.26 nM.
On to B2, for which the IC50 was found to be 0.21 nM.
In turn, B3 had an IC50 of 0.22 nM.
The same measure, in the same setting: for B4 the value was 0.27 nM; for B5, 0.25 nM; for B6, 0.23 nM.
Still for that read-out and setting: the figure for B7 is 0.43 nM; for B8 it is 0.2 nM.
Regarding B9, the IC50 was 0.21 nM.
Same read-out and setting: the figure for B10 is 0.21 nM.

The next experiment deals with T3, biotin-labeled human PD-1 Fc protein. In words: capture ELISA: antibody captured by anti-IgG Fc, biotin PD-1-Fc 60 nM. In general terms: An ELISA detects its analyte on a solid surface through an enzyme-linked reagent.
Consider B1, for which the response was half-maximal at 0.16 nM (EC50).
The same measure, in the same setting: the figure for B2 is 0.19 nM.
As for B3, a half-maximal response (EC50) required 0.2 nM.
On to B4, for which the EC50 (as a rule, the concentration at which the effect is half-maximal) came out at 0.18 nM.
B5 had a concentration for a half-maximal effect (EC50) of 0.2 nM.
On the same count and under the same terms, the figure for B6 is 0.16 nM.
Molecule B7 registered an EC50 of 0.25 nM.
The molecule B8 had an EC50 of 0.24 nM.
In turn, B9 returned an EC50 of 0.2 nM.
In the case of B10, the EC50 is 0.16 nM.

For the next experiment the target is unchanged. In words: competition ELISA: blocks biotin PD-1-Fc binding to coated Nivolumab (competitor). As for the experimental part: The next day, plates were washed with wash buffer, and blocked with 5% non-fatty milk in PBST for 2 hours at 37° C. […] Plates were finally washed using wash buffer. TMB was added and the reaction was stopped using 1M H_2SO_4, and the absorbance was read at 450 nm. Data were analyzed using Graphpad Prism software and $IC50$ values were reported.
Molecule B1 gave an IC50 of 1.1 nM.
B2: the IC50 stood at 1.4 nM.
Molecule B3 showed a half-maximal inhibitory concentration (IC50) of 1.28 nM.
Consider B4, for which the IC50 was 1.4 nM.
Regarding B5, the IC50 was found to be 1.49 nM.
On to B6, for which the IC50 turned out to be 1.34 nM.
B7 returned an IC50 of 2.26 nM.
Turning to B8, the concentration for half-maximal inhibition (IC50) was 2.13 nM.
B9: the IC50 came out at 1.89 nM.
In turn, B10 displayed an IC50 of 0.87 nM.
